# From US20240343803A1 (SHANDONG SIMCERE BIOPHARMACEUTICAL, published 2024)
# Residue numbers refer to the chain shown, from its start.
# T1: human PVRIG-his (AcroBiosystems, Cat NO. PVG-H52H4) (human, UniProt Q6DKI7 41-171, limits assumed)
# T1 construct: treated as the same protein; also called human PVRIG-His protein; Human PVRIG-His, Acro C227P1-9ARF1-T4
# T1 sequence (looked up): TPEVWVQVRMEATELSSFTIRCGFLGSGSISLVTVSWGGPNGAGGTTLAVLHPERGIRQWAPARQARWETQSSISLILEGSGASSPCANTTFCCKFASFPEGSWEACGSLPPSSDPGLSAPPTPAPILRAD
# T2: human PVRIG-mFc protein (Acro, PVG-H5253) (human, UniProt Q6DKI7 41-171, limits assumed)
# T2 construct: bought protein
# T2 sequence (looked up): T1 sequence (looked up)
# B1: PVRIG-A105 (VHH)
# VHH: EVQLVESGGGLVQAGGSLRLSCAASGRTFDRHTMTWFRQAPGKEREFVATASRIPGDTYYSHSVKGRFTISRDNAKNTVYLQLNNLKPEDTAVYYCAATSAYCSEVDCYEKGSWYDNWGQGIQVTVSS
# notes: tested as VHH-hinge-CH2-CH3 (human IgG1-Fc); not shown: human IgG1 hinge-CH2-CH3
# B2: SRF813-hIgG1 (antibody, V domains shown)
# VH: QVQLVQSGAEVKKPGSSVKVSCKASGGTFSSAAISWVRQAPGQGLEWMGNIIPIVGIANYAQKFQGRVTITADESTSTAYMELSSLRSEDTAVYYCARDTGRGYTRHFWFDPWGQGTLVTVSS
# VL: DIQMTQSPSSLSASVGDRVTITCRASQSISSYLNWYQQKPGKAPKLLIYAASSLQSGVPSRFSGSGSGTDFTLTISSLQPEDFATYYCQQSDILYTFGGGTKVEIK
# notes: human IgG1 format by its name
# B3: PVRIG-A105 (Fc fusion)
# chain: B1 VHH
# notes: heavy chain antibody VHH-hinge-CH2-CH3, human IgG1 constant part; not shown: human IgG1 hinge-CH2-CH3
# B4: PVRIG-A118 (Fc fusion)
# chain: QVQLVESGGGLVQAGGSLRLSCAASETYFDLYVMGWYRQAPGKDRELVATITYTGSIKIVDSVKDRFTISRGDAKNTVSLQMSSLKPEDTAVYFCNADPSGLGRKVYWGQGTQVTVSS
# notes: as for B3
# B5: PVRIG-A50 (Fc fusion)
# chain: EVQLVESGGGLVQPGGSLRLSCAASGFTFSYYDMSWVRQAPGKGLEWVSTINSNGGRTSYVDSVKGRFTISRDNTKNTLYLQMNSLKPEDTAVYYCVEGDPHNFGLENLSLRDFGSWGQGTQVTVSS
# notes: heavy chain antibody VHH-hinge-CH2-CH3, human IgG1 constant part; also called PVRIG-50; not shown: human IgG1 hinge-CH2-CH3
# B6: TIGIT-070-H1L1 (antibody, V domains shown)
# VH: EVQLVQSGAEVKKPGASVKVSCKASGYTFTNYYMHWVRQAPGQRLEWMGRIDPDSGGSKYNEKFKSRVTITVDKSASTAYMELSSLRSEDTAVYYCAREGHYGFYSDYWGQGTTVTVSS
# VL: DIQMTQSPSSLSASVGDRVTITCRVSENIYSYLAWYQQKPGKSPKLLIYNAKTLAEGVPSRFSGSGSGTDFTLTISSLQPEDFATYYCQHHYGNPLTFGPGTKVDIK
# notes: Humanized anti-TIGIT antibody
# B7: TIGIT-002-H4L3 (antibody, V domains shown)
# VH: EVQLQESGPGLVKPSETLSLTCAVSGYSITSDSWNWIRQPPGKKLEYIGYISYSGNTYYNPSLKSRVTISRDTSKNQFSLKLSSVTAADTAVYYCARLDFSNYGGAVDYWGQGTTVTVSS
# VL: DIVMTQSPDSLAVSLGERATINCKASQNVRTAVAWYQQKPGQSPKLMIYSASYRYTGVPDRFSGSGSGTDFTLTISSLQAEDVAVYYCQQYYTTPWTFGGGTKVEIK
# notes: Humanized anti-TIGIT antibody
# B8: TIGIT-006-H5L3 (antibody, V domains shown)
# VH: B7 VH with I29M, S33Y, N56R, L98G, F100Y, V107M, D108Y, Y109D
# VL: DIVMTQSPDSLAVSLGERATINCRASQGVSTTIAWYQQKPGQSPKLLIYSASYRYTGVPRFSGSGSGTDFTLTISSLQAEDVAVYYCQQYYSSPFTFGGGTKVEIK
# notes: Humanized anti-TIGIT antibody
# B9: TIGIT-005-H2L1d (antibody, V domains shown)
# VH: EVQLVQSGAEVKKPGASVKVSCKASGYAFTNYLIEWVRQAPGQRLEWMGVINPGSGGTNYKEKFKGRVTITADKSSSTAYMELSSLRSEDTAVYYCARGEYFFFDYWGQGTTVTVSS
# VL: B7 VL with N28H, R30S, T31N, Q38H, M47L, Y91H, T93N, W96H
# notes: Humanized anti-TIGIT antibody with NG-site mutation in VL
# Molecular target: T1, human PVRIG-his (AcroBiosystems, Cat …)
# Assay: competition ELISA on coated human PVRIG-his; blocked ligand human PVRL2-mFc
# Outline: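 Wells were coated with 0.5 μg/mL human PVRIG-his. Bound ligand was read by HRP/TMB absorbance, and IC50 came from a four-parameter logistic fit of OD against antibody concentration.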
row,Binder,IC50 (read off the curve)
1,B1,~900 pM
2,B2,~800 pM

# Molecular target: T2, human PVRIG-mFc protein (Acro, …)
# Assay: FACS competition, PVRIG-mFc binding to CHO-K1-CD112 cells, competitor CD112 on cells
# Procedure: A working solution of human PVRIG-mFc protein (Acro, PVG-H5253) prepared with staining buffer, 1 μg/mL (four-fold concentration), was added into a 96-well plate (50 μL PVRIG-mFc working solution per well). […] The diluted antibodies were added to the well containing 50 μL of PVRIG-mFc. The plate was placed on a microplate shaker at 400 rpm for 1 minute to fully mix the antibodies and PVRIG-mFc proteins, and then incubated at 4° C. for 30 minutes. After the incubation, the cell suspension prepared above (100 μL) was added into the wells, gently mixed with the pipette tip and incubated at 4° C. for 30 minutes. After the incubation, the cells were washed twice with staining buffer (200 μL per well) and centrifuged at 350×g for 5 minutes to discard the supernatant. The PE goat anti-mouse IgG Fc antibody (Biolegend, 405337) was diluted 250 times with staining buffer, added into the washed wells (100 μL per well), mixed well, and stained at 4° C. for 30 minutes. After staining, the cells were washed twice with staining buffer, finally resuspended with 200 μL staining buffer and analyzed by flow cytometry (BD, Canto II). The weaker the fluorescence signal, the stronger the ability of the antibodies blocks the binding of CHO-K1 human CD112 cells to the PVRIG-mFc protein. An antibody binding curve was drawn with concentration of antibodies as the abscissa and the corresponding Mean Fluorescence Intensity (MFI) as the ordinate. The IC50 value of the antibodies and the AUC value of the binding curve were calculated by using a Four Parameter Logistic Fit (GraphPadPrism9). The smaller the IC50 value and AUC value, the stronger the ability of the antibodies competes with CHO-K1-CD112 cells to bind to human PVRIG-mFc protein. […] […] The smaller the percentage value, the stronger the blocking ability of the antibodies.
Binder,% AUC to COM701-hIgG4,% AUC to SRF813-hIgG1,% IC50 to COM701-hIgG4,% IC50 to SRF813-hIgG1
B3,115%,84.1%,99.7%,97.7%
B4,110%,75.6%,111%,97.4%
B5,104%,81%,99.1%,91.8%

# Molecular target: T3, Full-length cynomolgus monkey TIGIT on CHO-K1 cells (CHO-K1 cynomolgus monkey TIGIT) (cynomolgus monkey)
# T3 construct: NCBI XP_015300911.1
# T3 sequence (chain, as listed by the source limits assumed): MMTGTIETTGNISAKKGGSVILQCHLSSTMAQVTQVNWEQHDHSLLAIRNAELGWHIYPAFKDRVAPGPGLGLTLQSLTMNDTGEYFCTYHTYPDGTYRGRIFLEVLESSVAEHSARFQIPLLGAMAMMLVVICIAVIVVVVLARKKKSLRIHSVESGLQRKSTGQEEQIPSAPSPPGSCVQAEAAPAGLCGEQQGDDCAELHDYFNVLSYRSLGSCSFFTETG
# Assay: FACS; CHO-K1 cynomolgus monkey TIGIT
# Outline: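 Binding to CHO-K1 cells expressing full-length human or cynomolgus monkey TIGIT, measured by flow cytometry. Cells at 2×10⁵/50 μL in 1% BSA-PBS were mixed 1:1 with antibodies serially diluted 3-fold over 12 points from 80 nM and held at 4° C for 60 min. EC50 came from the binding curves.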
row,Binder,EC50
1,B6,1.05 nM
2,B7,0.723 nM
3,B8,0.922 nM
4,B9,0.631 nM
